Source: the Human Domainome abundance scans (Beltran et al. 2025)

B1: Tyrosine-protein kinase BTK, residues 215 to 273; numbered along this chain, Q06187 (parent)
chain: ELKKVVALYDYMPMNANDLQLRKGDEYFILEESNLPWWRARDKNGQEGYIPSNYVTEAE

Variants of: B1
Experiment: abundance fitness (aPCA) (normalised: wild type 0, dead -1); higher = more abundant; growth selection in yeast, the domain comes from the species named
Details: Homo sapiens

Abundance fitness, by site and new letter:
E32: I -0.202, K -0.133, N -0.055, M -0.082, H -0.114, Q 0.028, P -0.007, Y -0.083, W -0.09, A 0.016, F -0.173, S -0.018, R -0.038, T -0.013, V 0.014
L21: Y -1.09, T -0.523, M -0.079, E -0.793, F -1.01, D -1.05, W -1.09, S -0.811, G -1.06, H -0.761, C -0.349, A -0.671, R -0.998, V -0.079, P -0.724, K -0.892, N -0.806, Q -0.754
N34: G 0.07, W -0.032, T 0.029, V 0.065, S 0.033, A 0.026, P 0.031, Y -0.102, H -0.066, R -0.002, Q 0.118, M 0.014, C 0.046, D 0.073, L 0.033, E 0.037
P36: G -0.089, E -0.024, A 0.012, D -0.013, C -0.072, F -0.437
E31: Q 0.072, C -0.034, D -0.058, F -0.005, I -0.117, R -0.028, M 0.026, G -0.051, A -0.008, P -0.162, W -0.105, N -0.058, H -0.054, V -0.119, L -0.122, S 0.05, T -0.04
L30: M -0.087, G -0.398, D -0.397, E -0.104, A -0.12, W -0.147, F -0.038, S -0.175, P -0.365, V -0.015, Y -0.056, C -0.207, Q -0.159, R -0.223, T -0.03, I -0.026, K -0.076, N -0.346
E26: I -0.013, P -0.041, R -0.068, H -0.134, Q -0.079, Y -0.082, D -0.061, L -0.01, G -0.191, V -0.032, C -0.084, F -0.024, T 0.011, S 0, A -0.075, K -0.01, W -0.037, N -0.098
N17: M -0.017, S -0.002, F -0.029, D -0.011, W -0.115, A -0.041, E -0.024, C -0.01, V -0.068, K -0.052, Q 0.033, L -0.019, R -0.001, P -0.123, Y -0.088, T 0.002, H 0.03, I -0.187
Y27: D -0.692, C -0.299, I -0.054, A -0.339, V -0.022, S -0.69, T -0.698, P -0.624, W -0.96, N -0.537, K -0.771, M -0.362, R -0.772, E -0.646, H -0.754, G -0.745, L -0.053, F -0.157
K23: I -0.207, R -0.056, W -0.372, Q -0.077, D -0.522, M -0.169, V -0.072, G -0.143, T -0.112, C -0.037, P -0.371, E -0.058, H -0.019, L -0.181, A -0.024
I29: Q -0.624, P -0.483, L -0.008, D -0.704, A -0.194, W -0.855, K -0.241, H -0.99, T -0.212, N -0.698, F -0.799, E -0.58, Y -1.02, V -0.002, G -0.847, M -0.229, S -0.544, R -0.436
A16: V -0.046, W -0.105, Y -0.17
D18: S -0.051, Y 0.025, R 0.004, I -0.033, F -0.04, N 0.009, G -0.038, K -0.048, L -0.073, H 0.146, A -0.017, P -0.469, T -0.034, E 0.05, V -0.061, Q 0.018, W -0.07
L35: K -0.039, A -0.08, Q -0.012, R -0.006, P 0, E -0.022, S -0.041, I 0.005, H -0.002, M -0.028, C -0.082, N -0.06, W -0.015, V -0.017, D 0.05, F 0.012
D25: Q -0.013, L -0.061, K -0.067, S -0.071, E 0.019, N -0.074, Y -0.101, R -0.068, M -0.005, P -1.15, G -0.073, A -0.046, F -0.107, H -0.01
F28: K -0.141, E 0.002, Y -0.068, M 0.017, G -0.049, W 0.032, T -0.02, L -0.004, H -0.07, I -0.021, R -0.012, A -0.055, D -0.018, Q -0.069, V -0.009, S -0.019, N -0.077, C -0.096, P -0.631
G24: N -0.096, M -0.223, C -0.472, S -0.226, D -0.09, T -0.395, V -0.987, E -0.276, F -0.156, L -0.382, W -0.34, Q -0.302, P -0.748, I -0.799, K -0.302, A -0.252, H -0.178, Y -0.193
S33: D -0.088, T 0.005, W -0.072, F -0.015, H -0.087, R -0.07, L -0.06, A 0.026, V -0.054, P 0.006, G -0.019, Y -0.065, C -0.039, Q 0.016, E -0.038, M -0.02, K 0.009
L19: A -0.796, I -0.124, S -0.695, D -0.936, T -0.75, G -0.851, Y -0.66, N -0.701, E -0.888, Q -0.711, C -0.444, F -0.391, P -0.515, H -0.703, V -0.314, R -0.792, M -0.105
Q20: G -0.001, M -0.073, L -0.055, K -0.075, S -0.007, R -0.013, T -0.043, W -0.131, D -0.168, H -0.075, V -0.082, N -0.152, I -0.084, P -0.037, E -0.001, A -0.007, F -0.2, C -0.06, Y -0.037
R22: S -0.003, K 0.049, V 0.031, L -0.002, G -0.257, N -0.012, P -0.768, T -0.037, A -0.032, Y 0, W -0.099, Q -0.011, H -0.08, C -0.004, E -0.041, F -0.036, I -0.026
